# Measured values as given in patent publication US20110230416A1.
# Biological target: hLDLR of non-genetically modified human cells (human fibroblasts, HUVEC) (human), P01130
# Test: FACS on HUVEC
# Sequence of hLDLR of non-genetically modified human cells (human fibroblasts, HUVEC) (human), P01130 (P01130 22-860): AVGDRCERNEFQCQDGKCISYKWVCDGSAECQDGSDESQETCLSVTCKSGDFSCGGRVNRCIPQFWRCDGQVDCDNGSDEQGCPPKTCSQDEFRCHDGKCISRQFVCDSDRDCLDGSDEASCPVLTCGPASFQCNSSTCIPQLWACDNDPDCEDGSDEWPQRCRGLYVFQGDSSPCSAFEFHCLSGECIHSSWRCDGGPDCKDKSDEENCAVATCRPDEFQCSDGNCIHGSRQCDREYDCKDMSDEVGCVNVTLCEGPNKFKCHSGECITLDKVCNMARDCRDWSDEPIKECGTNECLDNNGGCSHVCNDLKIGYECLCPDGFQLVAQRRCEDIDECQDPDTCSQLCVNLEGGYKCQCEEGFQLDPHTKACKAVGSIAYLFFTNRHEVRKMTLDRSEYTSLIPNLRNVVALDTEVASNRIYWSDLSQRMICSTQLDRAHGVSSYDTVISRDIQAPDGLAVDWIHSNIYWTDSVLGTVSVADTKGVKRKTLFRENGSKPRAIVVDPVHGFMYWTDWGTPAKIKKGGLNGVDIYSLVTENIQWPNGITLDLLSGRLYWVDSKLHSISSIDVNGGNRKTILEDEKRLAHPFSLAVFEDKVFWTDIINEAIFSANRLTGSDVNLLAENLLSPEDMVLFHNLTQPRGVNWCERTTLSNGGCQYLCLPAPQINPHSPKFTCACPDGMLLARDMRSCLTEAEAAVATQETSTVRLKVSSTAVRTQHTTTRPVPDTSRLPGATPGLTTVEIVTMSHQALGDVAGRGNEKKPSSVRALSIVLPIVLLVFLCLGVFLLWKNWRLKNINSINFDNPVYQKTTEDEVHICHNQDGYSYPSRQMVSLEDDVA
row,Binder,percentage of shift of the fluorescence signal in zone Q2 [%]
1,DSGLCMPRLRGCDPR (modifications not checked) [bacterial virus clone expressing cyclic peptide SEQ ID NO: 11],> 70
2,TPSAHAMALQSLSVG (modifications not checked) [bacterial virus clone expressing linear peptide SEQ ID NO: 21],> 55.8
